Assay results reported in US20090163698A1 (published 2009).

Target: murine αVβ3/5 integrin (murine, UniProt P43406 31-1044)
Test: cell-based or functional assay

murine αVβ3/5 integrin, sequence (P43406 31-1044): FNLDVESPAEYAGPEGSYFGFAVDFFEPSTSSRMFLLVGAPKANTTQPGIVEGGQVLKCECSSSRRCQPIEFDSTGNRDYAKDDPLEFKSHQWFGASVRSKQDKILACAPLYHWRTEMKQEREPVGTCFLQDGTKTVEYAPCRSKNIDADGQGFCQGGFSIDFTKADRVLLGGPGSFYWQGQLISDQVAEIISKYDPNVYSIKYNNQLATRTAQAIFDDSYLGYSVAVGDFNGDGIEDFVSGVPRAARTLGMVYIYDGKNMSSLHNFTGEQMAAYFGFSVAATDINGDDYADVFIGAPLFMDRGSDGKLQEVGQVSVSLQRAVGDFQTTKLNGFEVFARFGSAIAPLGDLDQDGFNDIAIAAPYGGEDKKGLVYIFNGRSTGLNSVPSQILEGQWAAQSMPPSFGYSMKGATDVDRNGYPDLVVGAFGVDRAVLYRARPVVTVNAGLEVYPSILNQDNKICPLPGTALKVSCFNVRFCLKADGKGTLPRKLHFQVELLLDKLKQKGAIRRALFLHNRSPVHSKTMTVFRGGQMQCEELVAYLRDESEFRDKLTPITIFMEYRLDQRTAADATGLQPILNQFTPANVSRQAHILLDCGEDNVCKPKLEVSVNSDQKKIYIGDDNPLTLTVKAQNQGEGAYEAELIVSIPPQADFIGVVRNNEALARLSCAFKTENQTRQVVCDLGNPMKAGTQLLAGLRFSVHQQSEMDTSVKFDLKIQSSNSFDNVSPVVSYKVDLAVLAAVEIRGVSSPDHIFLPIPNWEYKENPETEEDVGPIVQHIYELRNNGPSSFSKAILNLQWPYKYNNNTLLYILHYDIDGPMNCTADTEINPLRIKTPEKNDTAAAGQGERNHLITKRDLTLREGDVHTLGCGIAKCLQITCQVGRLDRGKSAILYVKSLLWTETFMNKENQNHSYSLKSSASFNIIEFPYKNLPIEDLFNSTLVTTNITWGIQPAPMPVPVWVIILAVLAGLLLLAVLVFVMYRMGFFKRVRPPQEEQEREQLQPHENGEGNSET

B1: CNTO 95 Fab′ (anti-alpha-V Fab′ made by pepsin cleavage of the parent antibody, reduction and reoxidation), conjugated to MalPEG-DSPE on the surface of … (Fab, V domains shown)
VH: QVQLVESGGGVVQPGRSRRLSCAASGFTFSRYTMHWVRQAPGKGLEWVAVISFDGSNKYYVDSVKGRFTISRDNSENTLYLQVNILRAEDTAVYYCAREARGSYAFDIWGQGTMVTVSS
VL: EIVLTQSPATLSLSPGERATLSCRASQSVSSYLAWYQQKPGQAPRLLIYDASNRATGIPARFSGSGSGTDFTLTISSLEPEDFAVYYCQQRSNWPPFTFGPGTKVDIKR
modifications: free sulfhydryl near the C-terminus conjugated to maleimide-PEG-DSPE inserted in the liposome
Increase (ratio of IC50 of liposome-entrapped doxorubicin to IC50 of 90:1 targeted liposomes), B16-F10 cells: 1 fold
